Source: article PMC4608358, “Physiological modulation of BiP activity by trans-protomer engagement of the interdomain linker” (eLife, 2015)
Where no end group is shown, it is not given here.

Columns and labels:
[1] = biological target: the molecule itself; assay: native gel or EMSA; purified BiP proteins (30-50 µM) on a Tris-glycine native gel (4.5% stacking, 7.5% separation), Coomassie stain or immunoblot; with or without ATP (3-5 mM)
[2] = biological target: T1, wildtype hamster BiP, N-terminally hexahistidine-tagged (hamster, UniProt G3I8R9 19-654); assay: SEC; BiP protein (50 µM) with 1 µM lucifer yellow-labeled tracer (peptide or BiP V461F), 16 hr in HKM; A230 nm and LY fluorescence recorded; with or without SubA (36 ng/µl) before the run; conditions: both partners purified
T1 construct: BiP (GRP78), hamster; Construct details are in Supplementary file 1; also called wt BiP; wildtype BiP; source: E. coli M15 (pQE10), purified (Ni-NTA); not shown: His6, N-terminal, kept

[3] = biological target: the molecule itself; assay: SEC; purified BiP proteins at 50 µM in HKM buffer (50 mM HEPES-KOH pH 7.4, 150 mM KCl, 10 mM MgCl2), 16 hr at room temperature, no added nucleotide; SEC-3 HPLC column, A230 nm
[4] = biological target: T1, wildtype hamster BiP, N-terminally …; assay: SEC; wildtype BiP (50 µM) incubated 16 hr with 1 mM peptide in HKM, SEC-3 column; competition of peptides with oligomerisation; conditions: both partners purified

T1 sequence (G3I8R9 19-654): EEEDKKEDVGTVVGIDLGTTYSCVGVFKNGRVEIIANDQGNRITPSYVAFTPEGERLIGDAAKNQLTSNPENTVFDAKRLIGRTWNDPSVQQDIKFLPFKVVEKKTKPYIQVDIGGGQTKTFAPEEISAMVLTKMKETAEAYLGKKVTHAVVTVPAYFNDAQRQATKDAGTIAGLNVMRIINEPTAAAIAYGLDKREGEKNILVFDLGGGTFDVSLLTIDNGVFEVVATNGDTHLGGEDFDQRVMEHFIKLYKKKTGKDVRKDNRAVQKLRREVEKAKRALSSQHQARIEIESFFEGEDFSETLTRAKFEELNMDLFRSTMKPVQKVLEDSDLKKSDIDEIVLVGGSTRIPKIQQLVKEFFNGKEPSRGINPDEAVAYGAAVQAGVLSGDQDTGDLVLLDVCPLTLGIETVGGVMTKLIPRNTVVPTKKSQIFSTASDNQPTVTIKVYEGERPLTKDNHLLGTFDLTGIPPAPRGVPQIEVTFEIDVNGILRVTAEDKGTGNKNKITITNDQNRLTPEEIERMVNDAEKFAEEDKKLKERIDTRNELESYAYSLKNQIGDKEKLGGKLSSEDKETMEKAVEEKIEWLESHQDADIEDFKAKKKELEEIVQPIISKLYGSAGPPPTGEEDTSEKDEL

B1: BiP^G226D, hamster BiP mutant locked in the domain-uncoupled state (natural protein)
chain: not shown
notes: BiP (GRP78), hamster; Construct details are in Supplementary file 1; source: E. coli, purified; not shown: His6, N-terminal, kept
[1]
  binding result: binds

B2: BiP^T37G, hamster BiP mutant locked in the domain-uncoupled state (natural protein)
chain: not shown
notes: as for B1
[1]
  binding result: binds

B3: BiP^T229A, ATPase activity-deficient mutant of hamster BiP (natural protein)
chain: not shown
notes: BiP (GRP78), hamster; Construct details are in Supplementary file 1; source: E. coli M15 (pQE10), purified (Ni-NTA); not shown: His6, N-terminal, kept
[1]
  binding result: binds

B4: lucifer yellow-labeled BiP-binding peptide (HTFPAVL-LY) (peptide)
peptide: HTFPAVL-{lucifer yellow}
notes: BiP substrate peptide (Marcinowski et al., 2011), fluorescently labelled; also called Pep-LY
[2]
  ratio of fluorescent to quantity signal R^(FLU/A230 nm), peak II (peak I set to 1.00): 0.48
  ratio of fluorescent to quantity signal R^(FLU/A230 nm), peak III (peak I set to 1.00): 0.26

B5: BiP^lidless, hamster BiP lacking its C-terminal lid (∆554–654) (domain or fragment)
chain: not shown
notes: Construct details are in Supplementary file 1; also called lidless BiP; source: E. coli, purified; not shown: His6, N-terminal, kept
[3]
  binding result: binds

B6: peptide derived from the interdomain linker of BiP (DTGDLVLLD) (peptide)
peptide: DTGDLVLLD
notes: interdomain linker of BiP (GRP78), hamster; also called Linker Pep; linker peptide
[4]
  binding result: binds

B7: BiP-binding peptide HTFPAVL (peptide)
peptide: HTFPAVL
notes: well-characterized BiP substrate peptide (Marcinowski et al., 2011); also called BiP substrate peptide
[4]
  binding result: binds
